From patent US7005258B1, “Cdc25 genes, encoded products and uses thereof” (The National Institutes of Health, priority 1991, dated 2006)
Blank lines part the entries; values can stand above or below the molecule they belong to.

Experiments:
[1] = target: T1, human cdc25 A (GST fusion protein) (Homo sapiens, UniProt P30304); test: cdc25 A tyrosine phosphatase assay with 32P-RCML substrate; format: biochemical
T1 construct: A plasmid containing the entire open reading frame of human cdc25 A was digested with Ncol (at amino acid 1); made in house; host or cells: E. coli (bacteria)
T1 sequence (P30304 1-524): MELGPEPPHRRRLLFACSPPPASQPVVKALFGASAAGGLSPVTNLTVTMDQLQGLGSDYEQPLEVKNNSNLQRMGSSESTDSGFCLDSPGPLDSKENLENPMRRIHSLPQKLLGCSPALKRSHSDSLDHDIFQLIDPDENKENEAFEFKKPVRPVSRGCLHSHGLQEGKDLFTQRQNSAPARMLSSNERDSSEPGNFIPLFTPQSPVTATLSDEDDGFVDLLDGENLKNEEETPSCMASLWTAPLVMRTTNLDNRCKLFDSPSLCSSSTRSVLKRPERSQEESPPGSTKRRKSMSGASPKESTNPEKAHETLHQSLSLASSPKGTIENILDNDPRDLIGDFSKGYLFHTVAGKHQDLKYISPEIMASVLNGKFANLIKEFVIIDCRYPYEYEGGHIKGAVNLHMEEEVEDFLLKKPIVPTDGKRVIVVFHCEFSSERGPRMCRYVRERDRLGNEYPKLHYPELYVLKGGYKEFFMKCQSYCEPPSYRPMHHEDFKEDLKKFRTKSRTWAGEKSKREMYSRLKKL
Method: A plasmid containing the entire open reading frame of human cdc25 A was digested with Ncol (at amino acid 1), blunt ended with T4 DNA polymerase, heat inactivated, extracted with phenolchlorophorm, ethanol precipitated and digested with EcoRI. The resultant 2.0 kb fragment was gel-purified and ligated into pGEX-2T Smal/EcoRI digested vector. Resultant plasmid upon transformation into bacteria gave rise to a 90 kd IPTG-inducible protein. […] Absorbance at 410 nm was determined using a molar absorptivity of 1.78×10^4M^−1 cm^−1 to calculate the concentration of the p-nitrophenolate ion generated in the assay. […]
Reduced carboxamidomethylated and maleylated lysozyme (RCML) was obtained from N. Tonks in a ^32P-tyrosine phosphorylated form. […] Reactions ([…]) were performed at 30° C. for 10 or 20 min, and after addition of the fatty acid free bovine serum albumin (BSA, Sigma) to 2 mg/ml, proteins were precipitated with […] of 20% trichloroacetic acid, vortexed, incubated at −70° C. for 5 min, thawed, spun in an Eppendorf centrifuge for 5–10 min at the maximal speed and […] supernatants were counted in 2 ml Aquasol (NEN) for 10 min. […]

[2] = target: T2, human cdc25 B (GST fusion protein) (Homo sapiens, UniProt P30305); test: cdc25 B tyrosine phosphatase assay, pH 8.8; format: biochemical; details: p13 at 25 mM, in the presence or absence of cyclin B
T2 construct: An 2.4 kb Smal fragment from the p4×1.2 plasmid encoding amino acids 32–566 was subcloned; made in house; host or cells: E. coli (bacteria)
T2 sequence (P30305 32-566 isoform P30305-2): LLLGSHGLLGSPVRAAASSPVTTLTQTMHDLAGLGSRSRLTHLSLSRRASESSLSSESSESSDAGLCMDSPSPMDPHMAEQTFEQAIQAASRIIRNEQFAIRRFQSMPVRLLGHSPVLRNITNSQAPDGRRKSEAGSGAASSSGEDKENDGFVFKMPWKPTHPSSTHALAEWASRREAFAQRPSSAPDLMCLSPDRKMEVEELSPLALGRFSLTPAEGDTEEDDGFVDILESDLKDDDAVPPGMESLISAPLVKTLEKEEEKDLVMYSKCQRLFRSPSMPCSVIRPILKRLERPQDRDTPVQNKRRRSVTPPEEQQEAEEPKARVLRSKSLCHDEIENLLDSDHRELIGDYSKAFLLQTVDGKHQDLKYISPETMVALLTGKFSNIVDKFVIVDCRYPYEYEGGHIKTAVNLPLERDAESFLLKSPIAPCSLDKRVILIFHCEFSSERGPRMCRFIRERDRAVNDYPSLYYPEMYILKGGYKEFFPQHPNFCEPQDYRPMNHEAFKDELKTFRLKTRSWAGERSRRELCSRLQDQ

inhibition of the endogenous phosphatase activity of cdc25 A ([1]; p13 at 25 mM, without cyclin B1): 2–3 fold
effect on the activity of cdc25 B [2]: no effect
B1: p13: p13 protein encoded by the suc1 gene, an essential subunit of the cdc2 protein kinase (protein)
chain: MSKSGVPRLLTASERERLEPFIDQIHYSPRYADDEYEYRHVMLPKAMLKAIPTDYFNPETGTLRILQEEEWRGLGITQSLGWEMYEVHVPEPHILLFKREKDYQMKFSQQRGG

B2: D: murine cyclin D1 (CYL1) expressed as fusion protein with GST (protein)
chain: MEHQLLCCEVETIRRAYPDTNLLNDRVLRAMLKTEETCAPSVSYFKCVQKEIVPSMRKIVATWMLEVCEEQKCEEEVFPLAMNYLDRFLSLEPLKKSRLQLLGATCMFVASKMKETIPLTAEKLCIYTDNSIRPEELLQMELLLVNKLKWNLAAMTPHDFIEHFLSKMPEADENKQTIRKHAQTFVALCATDVKFISNPPSMVAAGSVVAAMQGLNLGSPNNFLSCYRTTHFLSRVIKCDPDCLRACQEQIEALLESSLRQAQQNVDPKATEEEGEVEEEAGLACTPTDVRDVDI
modifications: left off: a dimerising Fc or GST
effect on the endogenous phosphatase activity of cdc25 A ([1]; RCML substrate, 10 pmoles of cyclin and cdc25 protein): neither stimulatory nor inhibitory effect
